The record followed here is US20040137588A1 (published 2004).

In general, IC50 refers to the midpoint of a concentration-inhibition curve. A lower IC50 goes with inhibition by little substance.

The target in test [1] is chimeric receptor consisting of the extracellular and membrane domain of VEGFR1 fused to the cytoplasmic domain of gp130, on 293A12 cells (UniProt P17948). The test is described as follows: cell-based or functional assay.
Test [2] has as its target T1, VEGF-R2/Fc chimeric protein (R&D systems) (human, UniProt P35968 20-764).
T1 construct: Bought from R&D systems; not shown: human immunoglobulin Fc domain
As to the kind of experiment: SPR (Biacore 2000), VEGF-B167 immobilised, receptor injected. As for the experimental part:
For control purposes binding of the receptors to VEGF-A₁₆₅ was also monitored. Both VEGF-B₁₆₇ and VEGF-A₁₆₅ were individually immobilised to a sensorchip using NHS/EDC chemistry according to the manufacturer's instructions. Briefly, 35 μl of NHS and EDC was injected onto the sensorchip at a flow rate of 5 μl/min to activate the sensor surface and enable covalent coupling of either VEGF-A₁₆₅ or VEGF-B₁₆₇. […] Post coupling, diaminoethane (50 mM, pH 9.0) was used to block any unbound activated sites on the sensor surface. Concentrated dimeric VEGF-B₁₆₇ (200 μg/ml) was diluted (1:10) in 20 mM sodium acetate and immobilized onto a separate channel on the sensorchip. Post coupling, diaminoethane (50 mM, pH 9.0) was used to block any unbound activated sites on the sensor surface.
At the end of each run, the surface of the sensorchip was regenerated using 2 cycles of phosphoric acid (0.1 M, 30 μl) at a flow of 50 μl/min. […] Both were diluted into 0.1% w/v BSA in PBS as a stock solution (50 μg/ml, storage −20° C.).
A general note: SPR reads the build-up and loss of mass on a sensor chip optically.

The target in test [3] is T2, VEGF-R1/Fc chimeric protein (R&D systems) (human, UniProt P17948 27-687, limits assumed).
T2 construct: Bought from R&D systems; also called VEGF-R1/Flt-1; soluble VEGFR1-Ig chimeric protein; not shown: human immunoglobulin Fc domain
T2 sequence (P17948 27-687 limits assumed, change not shown): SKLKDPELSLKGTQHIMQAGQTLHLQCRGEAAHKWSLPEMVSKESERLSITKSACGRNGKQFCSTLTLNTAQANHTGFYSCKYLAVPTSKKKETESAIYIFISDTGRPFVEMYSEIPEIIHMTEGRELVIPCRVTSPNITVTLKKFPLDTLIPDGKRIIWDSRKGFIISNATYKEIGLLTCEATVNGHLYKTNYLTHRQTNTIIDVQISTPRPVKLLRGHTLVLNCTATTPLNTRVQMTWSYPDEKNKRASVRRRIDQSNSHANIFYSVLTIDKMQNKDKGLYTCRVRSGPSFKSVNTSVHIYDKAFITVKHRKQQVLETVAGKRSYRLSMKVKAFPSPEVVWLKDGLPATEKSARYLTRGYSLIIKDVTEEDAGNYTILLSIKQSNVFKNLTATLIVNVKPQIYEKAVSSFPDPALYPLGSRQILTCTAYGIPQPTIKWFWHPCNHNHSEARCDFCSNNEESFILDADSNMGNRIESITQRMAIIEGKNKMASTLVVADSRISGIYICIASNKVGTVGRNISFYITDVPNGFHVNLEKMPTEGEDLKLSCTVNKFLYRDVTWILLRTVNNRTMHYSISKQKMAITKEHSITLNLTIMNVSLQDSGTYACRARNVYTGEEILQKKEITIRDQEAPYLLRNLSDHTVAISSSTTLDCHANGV
The test is described as follows: competition ELISA on captured VEGF-R1/Fc (100 ng/ml); competitor VEGF-A165 at 10 ng/ml, detected with biotinylated anti-VEGF-A165. As for the experimental part: 3. […] Plates were incubated for 90 min at room temperature.
5. VEGF-A₁₆₅ was added (indicated concentration in Buffer 20) and incubated at room temp for 1 hr. In competition experiments, VEGF-B₁₆₇ was added 30 min prior to the addition of VEGF-A₁₆₅. A range of VEGF-B₁₆₇ concentrations were used to compete with VEGF-A₁₆₅ at a final concentration of 10 ng/ml.
7. Biotinylated anti-VEGF-A₁₆₅ (10 ng/ml in Buffer 20, 100 μl) was added and incubated for 1 hr.
A general note: In an ELISA, binding on a coated surface is turned into a signal by an enzyme label.

Chain of chimeric receptor consisting of the extracellular and membrane domain of VEGFR1 fused to the cytoplasmic domain of gp130, on 293A12 cells (P17948 other isoform, or with tags, fused parts or gaps mutant limits assumed): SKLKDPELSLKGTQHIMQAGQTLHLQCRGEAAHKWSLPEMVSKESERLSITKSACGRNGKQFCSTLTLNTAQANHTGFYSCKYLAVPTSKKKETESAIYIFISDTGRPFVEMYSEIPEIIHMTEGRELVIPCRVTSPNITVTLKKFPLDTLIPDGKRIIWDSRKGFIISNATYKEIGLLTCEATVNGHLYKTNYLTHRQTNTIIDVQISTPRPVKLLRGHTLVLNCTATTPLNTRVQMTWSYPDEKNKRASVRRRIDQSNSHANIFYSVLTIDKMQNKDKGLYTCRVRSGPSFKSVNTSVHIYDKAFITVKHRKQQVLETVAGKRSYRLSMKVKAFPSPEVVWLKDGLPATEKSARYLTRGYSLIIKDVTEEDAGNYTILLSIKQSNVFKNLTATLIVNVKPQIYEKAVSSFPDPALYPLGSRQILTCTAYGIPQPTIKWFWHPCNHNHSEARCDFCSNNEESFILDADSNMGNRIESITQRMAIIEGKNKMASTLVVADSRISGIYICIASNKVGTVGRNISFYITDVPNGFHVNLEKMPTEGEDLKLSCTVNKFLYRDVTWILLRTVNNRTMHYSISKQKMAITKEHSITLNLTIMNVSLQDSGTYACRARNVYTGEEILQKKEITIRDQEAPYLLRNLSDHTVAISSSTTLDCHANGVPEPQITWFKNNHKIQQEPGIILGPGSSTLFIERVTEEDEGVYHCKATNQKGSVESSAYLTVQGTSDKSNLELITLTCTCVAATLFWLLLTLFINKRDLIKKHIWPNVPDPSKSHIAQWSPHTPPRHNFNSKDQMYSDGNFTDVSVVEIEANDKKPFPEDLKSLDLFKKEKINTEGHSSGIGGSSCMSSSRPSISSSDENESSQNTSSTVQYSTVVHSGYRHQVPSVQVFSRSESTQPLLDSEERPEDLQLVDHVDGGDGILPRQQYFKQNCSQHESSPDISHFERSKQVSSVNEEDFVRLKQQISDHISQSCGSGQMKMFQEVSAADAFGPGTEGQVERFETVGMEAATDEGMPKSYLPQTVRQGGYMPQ
T1 sequence (P35968 20-764 limits assumed, change not shown): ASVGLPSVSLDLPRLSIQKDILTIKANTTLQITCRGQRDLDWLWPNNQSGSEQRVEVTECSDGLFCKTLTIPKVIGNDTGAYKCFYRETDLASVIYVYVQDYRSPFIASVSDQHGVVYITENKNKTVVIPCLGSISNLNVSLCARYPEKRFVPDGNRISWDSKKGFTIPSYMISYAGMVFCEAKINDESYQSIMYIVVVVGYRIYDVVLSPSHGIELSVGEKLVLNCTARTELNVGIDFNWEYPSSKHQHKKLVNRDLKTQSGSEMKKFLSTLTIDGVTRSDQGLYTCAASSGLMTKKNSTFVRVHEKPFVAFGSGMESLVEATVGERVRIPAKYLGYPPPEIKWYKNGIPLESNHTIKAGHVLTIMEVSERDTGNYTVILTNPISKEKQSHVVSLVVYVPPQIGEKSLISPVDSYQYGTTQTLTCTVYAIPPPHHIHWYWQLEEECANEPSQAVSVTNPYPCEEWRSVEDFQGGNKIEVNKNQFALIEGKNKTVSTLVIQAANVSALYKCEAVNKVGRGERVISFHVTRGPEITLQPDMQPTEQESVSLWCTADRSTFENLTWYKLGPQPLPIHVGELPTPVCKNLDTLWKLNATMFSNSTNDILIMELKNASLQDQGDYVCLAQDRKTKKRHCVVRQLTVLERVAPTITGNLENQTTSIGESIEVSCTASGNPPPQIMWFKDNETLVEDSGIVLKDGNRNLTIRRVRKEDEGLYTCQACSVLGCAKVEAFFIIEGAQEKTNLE

Consider “VEGF-A (commercially available recombinant protein, Example 28) (from UniProt P15692 27-191) (ligand)”, for which the ED50 of luciferase production in 293A12 cells with the chimeric receptor in test [1] is 0.01 to 0.05 µg/mL.

B1: purified refolded dimeric VEGF-B167 (ligand, human, UniProt P49765-2 22-188, looked up, not shown: small tags and cut ends)
chain: PVSQPDAPGHQRKVVSWIDVYTRATCQPREVVVPLTVELMGTVAKQLVPSCVTVQRCGGCCPDDGLECVPTGQHQVRMQILMIRYPSSQLGEMSLEEHSQCECRPKKKDSAVKPDSPRPLCPRCTQHHQRPDPRTCRCRCRRRSFLRCQGRGLELNPDTCRCRKLRR
notes: mature
With B1, the binding result in test [2] is on record as “no binding”. Moreover, the IC50 in test [3] was ~0.02 µg/mL.
